Results: patent publication US20060204957A1, “Mta1s, a steriod hormone receptor corepressor” (priority 2002, published 2006)

Legend:
ER [1] = assay: ERE promoter-reporter assay, estradiol-stimulated, MCF-7 cells; type: cell-based, human; details: transient expression in MCF-7 cells
Description: (§1) Transfection was performed using a Fugene-6 kit (Roche Biochemical, New Jersey) as per the manufacturer's instructions. Cells were transiently cotransfected with a reporter construct and (β-galactosidase, and assayed for luciferase activity as described.
Since MTA1 is a corepressor of ER (Mazumdar, et al., 2001, incorporated herein by reference), the ability of MTA1 cDNAs to repress the transactivating function of ER were investigated.

ERα = molecular target: T1, ERα (Homo sapiens, UniProt P03372); assay: Confocal localization of ERα in estradiol-stimulated MCF-7 cells; type: cell-based; details: estradiol stimulated MCF-7 cells expressing the construct
T1 construct: endogenous in cells; host or cells: MCF-7 cells transfected with T7-MTA1s or MTA1s-del
T1 sequence (P03372 whole entry): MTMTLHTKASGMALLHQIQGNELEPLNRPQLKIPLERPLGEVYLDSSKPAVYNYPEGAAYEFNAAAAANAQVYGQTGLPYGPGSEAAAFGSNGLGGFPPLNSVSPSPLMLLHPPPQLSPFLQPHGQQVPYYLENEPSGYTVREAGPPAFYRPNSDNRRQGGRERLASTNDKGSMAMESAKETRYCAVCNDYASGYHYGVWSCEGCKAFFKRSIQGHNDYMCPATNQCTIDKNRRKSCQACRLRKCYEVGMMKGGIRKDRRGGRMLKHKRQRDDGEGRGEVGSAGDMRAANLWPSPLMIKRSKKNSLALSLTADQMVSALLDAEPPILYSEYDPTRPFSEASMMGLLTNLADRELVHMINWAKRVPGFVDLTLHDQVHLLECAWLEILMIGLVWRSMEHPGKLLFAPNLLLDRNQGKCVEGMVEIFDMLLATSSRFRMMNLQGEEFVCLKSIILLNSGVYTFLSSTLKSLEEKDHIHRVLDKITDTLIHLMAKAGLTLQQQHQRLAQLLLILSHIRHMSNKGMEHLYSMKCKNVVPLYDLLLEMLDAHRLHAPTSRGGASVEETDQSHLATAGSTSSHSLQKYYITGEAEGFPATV
Description: The cellular localization of T7-MTA1s, and ER was determined using indirect immunofluorescence as described in Mazumdar et al., 2001, herein incorporated by reference. Cells were treated with or without anti-T7 mAb or ER Ab followed by 546-Alexa-labeled goat anti-mouse Ab or 488-Alexa.
Expression of MTA1s-del but not wild type MTA1s was accompanied by the presence of ERα in the nucleus in more than 90% of the cell expressing MTA1s-del. Together, these findings indicated a pivotal role of LRILL motif in the cytoplasmic sequestration of ERα.

[2] = test system: glucocortocoid responsive element (GRE) transcription; assay: GRE reporter assay, dexamethasone-stimulated, MCF-7 cells; type: cell-based, human; details: transient expression
Description: (§2) FIGS. 6A-6B. Typical transcriptional repression by MTA1s. FIG. 6A illustrates an example of repression of dexamethasone (10^−9 M)-mediated stimulation of GRE-CAT activity in MCF-7 cells by MTA1s. FIG. 6B illustrates the exemplary repression of progesterone (10^−9 M)-mediated stimulation of PRE-luciferase activity in MCF-7 cells by MTA1s. Cells were cotransfected with β-galactosidase to assess transfection efficiency, and normalized results are presented here.
as §1

[3] = test system: progesterone responsive element (PRE) transcription; assay: PRE reporter assay, progesterone-stimulated, MCF-7 cells; type: cell-based, human; details: transient expression
Description: as §2, §1

ER [4] = assay: GST pull-down assay; type: binding; details: in vitro translated protein, GST fusion
Description: Incubating equal amounts of GST […] GST-AF2 or GST-AF 1 proteins immobilized to glutathione-sepharose beads with in vitro translated ^35S-labelled MTA1s, protein as described.
Since MTA1s lacked the nuclear signal sequence, the subcellular localization and function of MTA1s was examined. […] The role of MTA1s, in breast cancer cells, was investigated by generating stable clones of ZR-75R cells expressing T7-MTA1s (FIG. 3B). Subcellular fractionation of the ZR-75R cells expressing MTA1s confirmed that T7-MTA1s was in the cytoplasm. To assess the purity of the fractions, immunoblotting with antibodies against the nuclear corepressor PELP1 (Vadlamudi, et al., 2000) and cytosolic paxillin (FIG. 3C) were used. To understand the impact of MTA1s on the status of ER, immunostaining with an anti-ER mAb were used on MCF-7 cells that were transfected with the T7-MTA1s. The expression of T7-MTA1s was accompanied by a significant reduction in the nuclear ER immunoreactivity (FIG. 3D), raising the possibility that MTA1s regulates ER. To confirm the interaction between the MTA1s and endogenous ER, immunoprecipitation of T7-MTA1s with an anti-T7 mAb was used. […] To investigate whether the association between MTA1s and ER was direct or mediated by other proteins, the ability of in vitro-translated ER protein to bind with GST-MTA1s was investigated. […]
Target sequence in this assay (P03372 311-595 limits assumed): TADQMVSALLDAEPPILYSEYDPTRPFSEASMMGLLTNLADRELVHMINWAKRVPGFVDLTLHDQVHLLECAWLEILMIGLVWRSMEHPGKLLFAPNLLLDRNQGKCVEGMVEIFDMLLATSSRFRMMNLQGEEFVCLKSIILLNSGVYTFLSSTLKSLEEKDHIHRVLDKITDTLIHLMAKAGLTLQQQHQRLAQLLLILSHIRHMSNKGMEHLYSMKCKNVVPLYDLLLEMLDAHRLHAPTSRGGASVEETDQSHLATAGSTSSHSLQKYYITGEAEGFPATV

[5] = test system: pS2, c-Myc and cathepsin-D; assay: Expression of ER-target genes in ZR-75R cells; type: cell-based, human; details: ZR-75R/MTA1s cells
Description: FIGS. 5A-5F. MTA1s may impair genomic responses and upregulates the MAP kinase pathway in ZR75R breast cancer cells. […] FIG. 5B illustrates an example of the status of E2 (10^−9 M for 16 h)-induced stimulation of pS2 mRNA. […] Treatment, 5 min. with E2 (10^−9 M) or ICI 182780 (10^−8 M) or both. […] Treatment, 5 min with E2 (10^−9 M) or ICI 182780 (10^−8 M) or both. Relative levels of p42/44Phos are shown underneath.

ZR-75R or MCF-7 cells = assay: Soft-agar anchorage-independent growth assay; type: cell-based, human; details: stable expression in ZR-75R or MCF-7 cells
Excerpt: (§3) FIGS. 11A-11E. MTA1s may stimulate aggressive phenotypes in breast cancer cells. FIG. 11A illustrates an example of MTA1s overexpression inhibiting PRE-driven but not RARE-driven transcription. FIG. […] illustrates the Growth-rate of ZR/pcDNA or ZR/MTA1s cells in monolayer culture in the presence of E2 alone or with ICI 182780 (10^−9 M for 4 days). FIG. 11C show an exemplary effect of MTA1s expression on anchorage independent growth of ZR/pcDNA and ZR/MTA1s cells grown in 10% serum in the presence or absence of ICI 182780 (10^−9 M) or 4HT (10^−8 M) for 14 days. […] FIG. 11E illustrates that MTA1s may induce tumorigenesis of breast cancer cells. 5×10^6 cells were subcutaneously inoculated in the athymic nude mice (n=10), and tumor volumes at day 21 were recorded.
(§4) Soft agar colony growth assays were performed as described in Mazumdar et al., 2001, herein incorporated by reference. For xenografts studies, 5×10^6 cells were implanted subcutaneously into mammary fat-pad of nude mice and allowed to grow for 21 days and tumor size was measured, as described in Mandal et al., 2001, herein incorporated by reference.

breast cancer cells = assay: Tumorigenesis (xenograft) assay in nude mice; type: in vivo; details: MTA1s expressing cells implanted subcutaneously, 21 days
Excerpt: as §3, §4

B1: MTA1s-stop: MTA1s mutant made by adding a stop codon and deleting the entire 33 amino acids (protein)
chain: MAANMYRVGDYVYFENSSSNPYLIRRIEELNKTANGNVEAKVVCFYRRRDISSTLIALADKHATLSVCYKAGPGADNGEEGEIEEEMENPEMVDLPEKLKHQLRHRELFLSRQLESLPATHIRGKCSVTLLNETESLKSYLEREDFFFYSLVYDPQQKTLLADKGEIRVGNRYQADITDLLKEGEEDGRDQSRLETQVWEAHNPLTDKQIDQFLVVARSVGTFARALDCSSSVRQPSLHMSAAAASRDITLFHAMDTLHKNIYDISKAISALVPQGGPVLCRDEMEEWSASEANLFEEALEKYGKDFTDIQQDFLPWKSLTSIIEYYYMWKTTDRYVQQKRLKAAEAESKLKQVYIPNYNKPNPNQISVNNVKAGVVNGTGAPGQSPGAGRACESCY
repression of estradiol's ability to stimulate ERE transcription (ER [1]): did not result in a significant suppression

B2: MTA1s-del: MTA1s mutant made by deleting the LRILL motif (protein)
chain: MAANMYRVGDYVYFENSSSNPYLIRRIEELNKTANGNVEAKVVCFYRRRDISSTLIALADKHATLSVCYKAGPGADNGEEGEIEEEMENPEMVDLPEKLKHQLRHRELFLSRQLESLPATHIRGKCSVTLLNETESLKSYLEREDFFFYSLVYDPQQKTLLADKGEIRVGNRYQADITDLLKEGEEDGRDQSRLETQVWEAHNPLTDKQIDQFLVVARSVGTFARALDCSSSVRQPSLHMSAAAASRDITLFHAMDTLHKNIYDISKAISALVPQGGPVLCRDEMEEWSASEANLFEEALEKYGKDFTDIQQDFLPWKSLTSIIEYYYMWKTTDRYVQQKRLKAAEAESKLKQVYIPNYNKPNPNQISVNNVKAGVVNGTGAPGQSPGAGRACESCYMSSDILEEIWWLENANPVRWREARTKPQ
repression of estradiol's ability to stimulate ERE transcription (ER [1]): did not result in a significant suppression
cells with ERα present in the nucleus (ERα): more than 90%

B3: full-length MTA1: 715 amino acid metastasis-associated protein, corepressor of nuclear Estrogen Receptor α (protein, UniProt Q13330 1-715, looked up)
chain: MAANMYRVGDYVYFENSSSNPYLIRRIEELNKTANGNVEAKVVCFYRRRDISSTLIALADKHATLSVCYKAGPGADNGEEGEIEEEMENPEMVDLPEKLKHQLRHRELFLSRQLESLPATHIRGKCSVTLLNETESLKSYLEREDFFFYSLVYDPQQKTLLADKGEIRVGNRYQADITDLLKEGEEDGRDQSRLETQVWEAHNPLTDKQIDQFLVVARSVGTFARALDCSSSVRQPSLHMSAAAASRDITLFHAMDTLHKNIYDISKAISALVPQGGPVLCRDEMEEWSASEANLFEEALEKYGKDFTDIQQDFLPWKSLTSIIEYYYMWKTTDRYVQQKRLKAAEAESKLKQVYIPNYNKPNPNQISVNNVKAGVVNGTGAPGQSPGAGRACESCYTTQSYQWYSWGPPNMQCRLCASCWTYWKKYGGLKMPTRLDGERPGPNRSNMSPHGLPARSSGSPKFAMKTRQAFYLHTTKLTRIARRLCREILRPWHAARHPYLPINSAAIKAECTARLPEASQSPLVLKQAVRKPLEAVLRYLETHPRPPKPDPVKSVSSVLSSLTPAKVAPVINNGSPTILGKRSYEQHNGVDGNMKKRLLMPSRGLANHGQARHMGPSRNLLLNGKSYPTKVRLIRGGSLPPVKRRRMNWIDAPDDVFYMATEETRKIRKLLSSSETKRAARRPYKPIALRQSQALPPRPPPPAPVNDEPIVIED
modifications: full-length
notes: 715 amino acid metastasis-associated protein, corepressor of nuclear Estrogen Receptor α
repression of estradiol's ability to stimulate ERE transcription (ER [1]): effectively blocked

B4: MTA1s: novel 430 amino acid protein from an alternatively spliced MTA1 transcript, with unique 33 amino acid C-terminus (SEQ ID NO:2) (protein, listed as Homo sapiens)
chain: MAANMYRVGDYVYFENSSSNPYLIRRIEELNKTANGNVEAKVVCFYRRRDISSTLIALADKHATLSVCYKAGPGADNGEEGEIEEEMENPEMVDLPEKLKHQLRHRELFLSRQLESLPATHIRGKCSVTLLNETESLKSYLEREDFFFYSLVYDPQQKTLLADKGEIRVGNRYQADITDLLKEGEEDGRDQSRLETQVWEAHNPLTDKQIDQFLVVARSVGTFARALDCSSSVRQPSLHMSAAAASRDITLFHAMDTLHKNIYDISKAISALVPQGGPVLCRDEMEEWSASEANLFEEALEKYGKDFTDIQQDFLPWKSLTSIIEYYYMWKTTDRYVQQKRLKAAEAESKLKQVYIPNYNKPNPNQISVNNVKAGVVNGTGAPGQSPGAGRACESCYMSSLRILLDILEEIWWLENANPVRWREARTKPQ
repression of estradiol's ability to stimulate ERE transcription (ER [1]): effectively blocked
repression of GRE transcription stimulated by dexamethasone [2]: blocked the stimulation
repression of PRE transcription stimulated by progesterone [3]: blocked the stimulation
binding to ER in GST pull-down (ER [4]): interacted with the GST-ER but not with GST alone
expression of ER-target genes pS2, c-Myc and cathepsin-D [5]: significantly reduced expression
anchorage-independent growth in soft agar (ZR-75R or MCF-7 cells): significantly enhanced
tumorigenicity in nude mice (breast cancer cells): more tumorigenic
